In the DeepSol protein solubility set:

Assay: soluble on expression in E. coli; label from the status in PepcDB or PDB records

Soluble on expression in E. coli, not soluble:
MGSDKIHHHHHHMNILFVAPYTPSPIRVRPYQFIRHLARRGHTITLVCVADNEAALAELRTICRRVVAVPTRTGDHVLAYIRALPTRLPLQAAHCLTPAMITAVTREIQSGDHDVIHIEHLRAAEIGLAALHQSGGGLPVVLDAVDSISLLFERTFRRSSSLSGRLRALIDLARTRHYEATYPHRFAAVVVTSPEDRWALMTLNQTLSHPGHNPLVVAPNGVDLEYFQPHTGPRHPASLVFTGKMSYHANEAAARYLVEAIMPRVWAVRPEVTVTLAGAEPGAHIRAYAHDPRITVTGAVPDLRPYLTQATIAVAPIRYGVGVQNKVLEAMATATPVITARQATVALSVQPGHDLIVADDAAEFAQAILNLLADPERRDRLGQAGRMYVERHHHWQQSVTCLESVYRAVTTPVYTH
MGSDKIHHHHHHMNIPIKTLHYFLTLVETGNFTRAAEKSFITQPTLSKIIQRLEENLGQQLLHRNNQKIELTQAGILLENSAREILGQWHRLQEDLTNLSGLKSGHLRLGVCPMMSSLIIDLLTAFRQQYPGIELQMYEYGGFGCEQALLNNSLDIAFTALPTTHDIELANRALTRYPLLACLPKDHALAQQEAVTWQDFEAYPFILYNEDFSLAKLITRLSHKAGVQLNIAFRSGQWDFLATMVEAQMGVAILPEPICHKLQGSELVFKPIRPNLTWDLALIWRKDLPLTPAAQALLDLSEQAHLHP
MGSDKIHHHHHHMNKEHICFDFDSNPAFQTIDYEVAARSFVPGYESIFNMAVALLDASVPEPAHLLIVAAGGGMELITFGQARSHWLFTGVDPSAKMLAIAQEKVAKQGLTNRVKLHQGLTHELPVTTLYDAATCILAMHFLPDDGAKLLLLQSISQRLKPGAKLILVDLCEEKGSERFNDFLKAYKYHARNLGMSPEIVEETASKVVHIHCISEERTIELLQEANFSKITRFFTALWFRGWIATKNT
MGSDKIHHHHHHMNLEEVLNYRRSVRVFDKTKPLDPEKVKHCLELATLAPNSSNMQLWEFYQVIQPELLAKISKACLDQTATSTASEVVVFVTRQDLYRIRAKFVLDFERGNVRRNSPKERQEKRIKDRELYYGKLMPFLYARFFRILGLLRSVLAKAIGLFRPIVREVSESDMRVVVHKSCALAAQTFMIAMANEGYDTCPLEGFDSKQMKKLLKLPHGAEVNMVIACGIRDGNKGIWGERGRVPFDEVYHRV
MGSDKIHHHHHHMNLKLDHIIHYLHQLESFKFPGEILELQNGGRHHHLGTFNQIAPIKNSYIELLDVENESKLSNIAKTEEGRVSFATKIVQDHFKQGFKGICFRTKDINQVKSTLENRGVDVIGPIDMERENKKGHQIRWRLLYIANPDYTVKPPFFIEWDNNKKQNLSQIHNFNLSSFKIKEVIITSTQRETTVSLWKEWYNLKIVNETATSTDLKLETDEVIYKIEDGKDSGFHTLIMTDINATAPYSIFIRGAKYRFEPPN
MGSDKIHHHHHHMNLNIAICDDDTNDIAIMKKNILQYTIETDNNIVVSSYFSASDILSDYKNHLYQIVLLDIEMPDINGMELARQLRDMDDDLLIIFTTSYPEYMHESFEVQPFQFITKPVDYTAIYKLFNNIIKKLYRNSKSIVIIDTDGEKNFVPLSDLLYISSMKENKLHLRYQLTDRALISKGTLSEAEKRLSSHGFVSPSRGFLVNLHQIRSITSTRLLLNNGFELPISRRRSKELQNIYSQHIINIL
MGSDKIHHHHHHMNMAHDEQRWLSPRLQKAAALCNQAPAASESPLWLGIDLGTCDVVSMVVDRDGQPVAVCLDWADVVRDGIVWDFFGAVTLVRRHLATLEQQLGCRFTHAATSFPPGTDPRISINVLESAGLEISHVLDEPTAVADLLQLDNAGVVDIGGGTTGIAIVKQGRVTYSADEATGGHHISLTLAGNRGIGLEEAEQYKRSHAGEIWPVVKPVYEKMAEIVARHIAGQGIVDLWLAGGACMQPGVHELFRQRFPALPVHLPQHSLFMTPLAIANSGREKAEGMYAS
MGSDKIHHHHHHMNNIIATGFNTASTDGELDSLERELRRLEAIGVDTVELALSSLDLIAGGRIVKERGDRLRTLLETFSFRYTVHGLVSSNFMDPATRRHQVDAAKALVEICDSIDARVLVQHAGFLRADQIAQRAGADERQCEALLELGEHAKAYGIRIAFENIFTTEPGQYRQTPAEVAATVKAVNHPDVVALIDFSHAYLESNYRGLDFRDQLRAMAPVLGAPGRRLSRRTATTRIVVITDGGMECSTGWTS
MGSDKIHHHHHHMNNIQAIRKKVETQIDDLQNKTDEIAEFNQAKVLDAFQENKVSDFHFHPSTGYGYDDEGRDTLERVYATVFKTEAALVRPQIISGTHAISTVLFGILRPDDELLYITGQPYDTLEEIVGIRKQGQGSLKDFHIGYSSVPLLENGDVDFPRIAKKMTPKTKMIGIQRSRGYADRPSFTIEKIKEMIVFVKNINPEVIVFVDNCYGEFVEYQEPPEVGADIIAGSLIKNPGGGLAKTGGYIAGKEALVDLCGYRLTTPGIGREAGASLYSLLEMYQGFFLAPHVTAQAIKGARFTAAMLAEFGVEADPVWDAPRTDLIQSVSFHNKEKMVAFAQAIQAASPVNAHVLPIGAYMPGYEDDVIMAAGTFIQGASLELTADGPIREPYQLYVQGGLTYEHIKIAVTRAIQKIV
MGSDKIHHHHHHMNQIIPTSANGCIPNVYFMGRWTTQTVESKPAMYTTNLGAQILFEVQNADYFTLEAVINPLSAPQTLSIYIDDELHLTPLTRSKNDFKLSSNQSHIVRIYFTGNTDQDEIWLGNDGLTIKDITIASGTLAAIKPAGPLVAFIGDSITAGCWVRSKAPSIGYGADLNYAAQLSRALDWEDYRIAYSAAGIIRYGTGGVPPAGKFVKYVNFSVKAPRINPDLVLINLGTNDARYEDDVFEMYFVWFINEVKKQFPHARIIIITPFNQAHSHVIKNVAKALKIELIPTLDWVIETNDEVHPNVEGSKAISDHLVAWFTEPQNRLQSE
MGSDKIHHHHHHMNQNVTSKVYPWQQTMWETLTTRFPNIGHGLLFYGKQGCGKHAFAKHFLAWVLCLNKQPQGACGECSSCQWLKSDTHPNYVHITTDEENKKQNAKIKIEKIRDLLPFVQQTGEGWRVVVIEPAEALNLASSNALLKTLEEPGERVVLILLADHYLKLPATIRSRLQHFALDRISYTEATSYLNEHLAETASVPAELLLGLSNDMPLQAVEIATSDWFAKRQSFLEDWTKVVNQKNMPLFYSAKWQKELNFSDFMMLLEYLLGDLICVKLNQPQKNIDLQFDQLAQNYNLESLFSLYEELQQSKRLVEQNVQTQLIIDQLFIKLMNV
MGSDKIHHHHHHMNQSNCIVAQSGGPTVAINASLAGVIAGVKSSEKYDICYGAVNGILGILNENYLNLSDIFADDANLEKLKTTPAMYLGSCRHKLPDYKDDDSPYVYIFHQFDKLSIKAFFYIGGNDSMDTVLKLSDYAKKINSDVKIIGIPKTIDNDLCMTDHTPGFGSAAKYIASSMLEIAHDTFIYAVKSVTIVEIMGRDAGWLTAASALARNEYNTAPQFIYLPEVNFDKDKFVADIKEALAHTNNVIVAVSEGIHDADGSYITSSKAACDQFGHQQLSGAGKALEFIVKENIGVKVRSVEVNVLQRCASHLASLTDIEESFAQGKKGVTIAAEGVTASMVCLKRISNKPYQVEYTYSAIKDIANEAKSVPREWINDAGNDVKPELIEYLKPLIQGETAVAYKNGLPDYMDVSHLHKCN
MGSDKIHHHHHHMNRRRIALLLPRLGRYGGVEQFAWHLAEALAQRGHEVDFICARKEGEAPAGVRPVVVGRKGGLKVLKALHYLVQAERMRRRGDYDLTVSFGKTWEQDILRVGGGPLSTFWQLSGEAWPKGPRRTLKCLTRHLSPYNWLTHIIERRQYDGHCKIICVSDAVRGWTLQAFPSLAATPPEVIYNRPQLERFTPAPDTGRAACRERFSIPAGHVAIGTASSNFILKGVGHLIHALSLLPPHFMLLVAGGRNPGPFMDVARKLGVSDRVRFLGRVDDMPAFYNAIDVFALNTFYDACSNAVLEALACGTPALSTTRNGSSRFLPEAWVTDAPDDPADLAARLAALASEERTEGFAWPEDVKAGIPAWVERIEREMESGIRRG
MGSDKIHHHHHHMNTAPFKLEADFASALPTMAAPWQGEEAPNPELVILNDDLAYSLGLDPTWLRTPEGVQFLLGLNPEPLTKAVAQAYSGHQFGQFVASLGDGRALLLGEARSADGVLHDIHLKGSGRTQFSRGADGRAVLGPVLREYIISEAMHALGVPTTRSLAVISTGRKIQRGSVAPGAVLVRVATSLIRVGSFQYSNISGGIELSQHLANYTITRHFPSLVAELSAPTPATYVSLFKAILQRQADTVGKWTRLGFVHGALNTDNTLISGETVDYGPCAFMERYRGDAKFSSIDTYGRYKFENQPMILGWNMARLVETLLPLLGATPDEGMTAAQEALVEFDDLCEQAIRKEFATALGLDESDTGTVEQFRELLYLHNPDITTLLRALTDNTAPPSGFEAFVHDWKTQDPDIEAMRAVNPLFIPRNHLVEAALADAVEGNLEKFHELLAAVTNPFDPTAGPDELRLPSEEGFEEDYMTFCGT
MGSDKIHHHHHHMNTYIKILLGTCCSFSILSCSNNLDETVYSKVTEQTYNYTVDDFTPSIASVYSYLRSQSDHWGYFCAQEVSADAIVMPPNASGWDDGGAYRRMHYQTWNSEQDHVKNIWSWFYQGALLCNKIIEQIKTGVIPTPSDTEKTQGLAELRAMRAYYYWQICDNFGDAPLVTTTAMDLPAKNTRREIFDFVENELIEVIPNLSEEVGGNYYGRMTKWAAKALLANLYLNAQVYINEARWNDCITQCDDIINSGKFTLAENYKDLFRALGVESCKEIIFTIPYDENFATGNSIFMFSWHGELKKKYNTIDTPWGCGSAMGVTQFIDTYNEKDSRLADTWLMGQQLAADGTPLYGTYDKMGEPLIYTKDIPSGNYTSELEGYRMNKFEVAENSYSSSNTDIPVFRYAEIMMMKAECLLRTGKSGAGTLVTQVRQRAFKDNPELATVTDSQLAGNTCYQYGYVEDYKIVDRGNTDPIQFGRMYDELGWEFAWEMHRRRDAIRFGIYTTKSWLSHKPEGDYRSVFPIPETVLTSNPNLEQNPNYL
MGSDKIHHHHHHMPAAATLADWKAASVPDFLAERSRQELARLGNPGWWGPPDLEALAELMQLAAAEGWRILPAGRGTRLDWGGLGHPVDAVISTAACDRLIEHAAADLTVTVEAGMTLGQLQTILAETGQWLPFDPIAGESSSLGALVSTGMSGSLRHRYGSLRDFLIGITFLRHDGQWAKGGGRVVKNVAGYDMMKLLHGAWGSLGLIGKLTFRTYPLPNAWGTIACQGDREAILQLRSQLVRSDLTPVAFDLLSPAAAAELELRSQWTVLLRFGSVAASVQEQQQVVELQATRLGLAAMTVAEPVWGQLNQSFEPRSRSATLIKFALLPSQLPCLLAELEAIAPTALGRVHAASGAGWLVWPEAEPTVETLLRLRRHCEVAEGFLSVLAASVSLKQQLDIWGYPGQGLAVMRAIKRQFDPQSRLAPGRFLAGLEE
MGSDKIHHHHHHMPAFPLNAWYAAAWDADIKHALFPRTICGKHVVMYRKADGTVAALEDACWHRLVPLSKGRLEGDTVVCGYHGLKFNPQGRCTYMPSQETINPSACVRSYPVVERHRFVWLWMGDPVLADPALVPDMHWNDDPAWAGDGKTIYAKCDWRLVVDNLMDLTHETYVHGSSIGNEAVAEAPFDVTHGDRTVTVTRWMKGIEPPPFWAAQLGKPGLVDRWQIIRFEAPGTVTIDVGVAPAGTRAPEGDRSQGVNGFVLNTMTPETDTTCHYFWAFVRNYRLSEQRLTTEIREGVSGIFREDEIILEAQQRAMLENPDRVFYNLNIDAGAMWSRKLIDRMVAQESAPKLQAAE
